This is an account of results in the nanobody polyreactivity screen of Harvey et al. (2022).

This data set can be described thus: yeast display, Sf9 membrane polyspecificity reagent, FACS + sequencing; frameworks hold sequencing errors. The gist of the method:
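Galactose-induced (36–48 hours) yeast carrying a synthetic nanobody display library were exposed to 10% biotinylated, detergent-solubilized Sf9 membrane reagent at 4 °C for 1 hour. FACS followed streptavidin microbead enrichment, using low and high (top ~1%) gates for expression (anti-HA) and reagent binding (streptavidin). Colony PCR, MiSeq 2 × 250 sequencing and CDR-length filtering followed. Labels for polyreactivity reflect the gate of origin.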
Turning to “QVQLVESGGGLVQAGGSLRLSCAASGIIFGKYAMGGYRQAPGKERELVAAISSSGGRTYYADSGKGRFTISRDNAKNNVYLQMNSLKPEDTAVYYCAAVPGPGYYHYGYWGQGTQVTVSS”, the “polyreactivity (PSR sort gate)” value is “high polyreactivity”.
The result for “QVQLVESGGGLVQAGGSLRLSCAASGIIFGQNAMGWSRQSPGKESEVVAAITISGGSTYYADSVKGRFTISRDNAKNTVYLQMNSLKPEDTAVYYCAARRVTWKVIARGYRYGYWGQGTQVTVSS” reads “low polyreactivity”; that for “QVQLVESGGGLVQAGGSLRLSCAASGIIFGRYAMGWYRQAPGKERELVAAISARGGSTYYADSVKGRFTISRDNAKNTVYLHMNSLKPEDTAVYYCAARAVYTQKRYDSWGQGTQVTVSS”, “high polyreactivity”; that for “QVQLVESGGGLVQAGGSLRLSCAASGIIFGRYAMGWYRQAPGKERELVAVISRSGGSTYYADSVKGRFTISRDNAKNTVYLQMNSLKPEDTAVYYCAARYTPTYNAGLDYWGQGTQVTVSS”, “high polyreactivity”.
On to “QVQLVESGGGLVQAGGSLRLSCAASGIIFGRYDMGWYRQAPGKERELVAAITWSGGTTYYADSVKGRFTISRDNAKNTVYLQMNSLKPADTAVYYCNAVGRYSEDGYWGQGTQVTVSS”, for which the “polyreactivity (PSR sort gate)” value is given as “high polyreactivity”.
The result for “QVQLVESGGGLVQAGGSLRLSCAASGIIFGSYAMGWYRQAPGKERELVAGISKIGGRTYYADSVKGRFTISRDNAKNTVYLQMNSLKPEDTAVYYCNKVRTRERTDYDYWGQGTQVTVSS” reads “low polyreactivity”; that for “QVQLVESGGGLVQAGGSLRLSCAASGIIFGSYAMGWYRQAPGKERELVAGISRRGDSTYYADSVKGRFTISRDNAKNTVYLQMNSLNPEDTAVYYCAADRYLYFYWWPHVGGSPTYGYWGQGTQVTVSS”, “high polyreactivity”; that for “QVQLVESGGGLVQAGGSLRLSCAASGIIFGTYVMGWYRQAPGKERELVAAINRSGGNTYYADSVKGRFTISRDNEKNTVYLQMNSLKPEDTAVYYCAAEEAYRSRRGGFDYWGQGTQVTVSS”, “high polyreactivity”.
With “QVQLVESGGGLVQAGGSLRLSCAASGIIFGYYAMGWYRQAPGKERELVAAINQDGSSTYYADSVKGRFTISRDNAKNTVYFQMNSLKPEDTAVYYCNARGVPRQDARMGYWGQGTQVTVSS”, the “polyreactivity (PSR sort gate)” value is recorded as “low polyreactivity”.
Under “QVQLVESGGGLVQAGGSLRLSCAASGIIFGYYAMGWYRQAPGKERELVAAISRRGGSTYYADSVKGRFTISRDNAKNTVYLQMNSLKPEDTAVYYCAAVELRLSTPDMESWGQGTQVTVSS” stands “high polyreactivity”; under “QVQLVESGGGLVQAGGSLRLSCAASGIIFGYYAMGWYRQAPGKERELVAAITSGTSTYYADSVKGRFTISRDNAKNTVYLQMNSLKPEDTAVYYCNIVRRYGDEDSWGQGTQVTVSS”, “high polyreactivity”; under “QVQLVESGGGLVQAGGSLRLSCAASGIIFGYYAMGWYRQAPGKERELVAGITYRTGSTYYADSVKGRFTISRDNAKNTVYLQMNFLKPEDTAVYYCAATQYKRKYSSWYYYWGQGTQVTVSS”, “high polyreactivity”.
The result for “QVQLVESGGGLVQAGGSLRLSCAASGIIFHIYAMGWYRQAPGTERELVAAISTGSSTYYADSVKGRFTISRDNAKNTVYLQMNSLKPEDTAVYYCNAVSRYLWVKGFDYWGQGTQVTVSS” reads “low polyreactivity”; that for “QVQLVESGGGLVQAGGSLRLSCAASGIIFHYYAMGWYRQAPGKEREFVASISFSGSSTYYADSVKGRFTISRDNAKNTVYLQMNSLKPEDTAVYYCAARYLYGPKYYYWGQGTQVTVSS”, “high polyreactivity”; that for “QVQLVESGGGLVQAGGSLRLSCAASGIIFHYYAMGWYRQAPGKERELVAAISGSGGSTYYADSVKGRFTISRDNAKNTVYLQMNSLKPEDTAVYYCAAKLWGGGGYWGQGTQVTVSS”, “high polyreactivity”.
For “QVQLVESGGGLVQAGGSLRLSCAASGIIFHYYAMGWYRQAPGKERELVATISWDGGNTYYADSVKGRFTISRDNAKNSVYLKMNSLKPEDTAVYYCNVYDKAPAYDYWGQGTQVTVSS”, the “polyreactivity (PSR sort gate)” value was “low polyreactivity”.
“QVQLVESGGGLVQAGGSLRLSCAASGIIFIFYDMGWYRQAPGKERELVATITSGTNTYADSVKGRFTISRDNAKNTVFLQMNSLKPEDTGVYYCAAGFSPASQLDYWGQGSQVTVSS”: the “polyreactivity (PSR sort gate)” value is on record as “low polyreactivity”.
For “QVQLVESGGGLVQAGGSLRLSCAASGIIFIKYSMGWYRQAPGKERELVAAITSGGSTHYADSVKGRFTISRDNAKNTVYLQMNSLKPEDTAVYYCYADILRHVAYFKDRYQAGSYWGQGTQVTVSS”, the “polyreactivity (PSR sort gate)” value is “low polyreactivity”.
As to “QVQLVESGGGLVQAGGSLRLSCAASGIIFIVNAMGWYRQAPGKERELVATISSSGDITRYADSVKGRFTISRDNAKYTVYLQMNSLKPEDTAVYYCAARLWTGYWGTAHPRYDYWGQGTQVTVSS”, the “polyreactivity (PSR sort gate)” value is recorded as “high polyreactivity”.
Take “QVQLVESGGGLVQAGGSLRLSCAASGIIFIYYTMGWYRQAPGTDRELVAVITTSGDGTYYADSVKGRFTISRDNAKNTGYLQMNSLKPEDTSVYYCAASYSTWVSTRNDYWGQGTQVTVSS”: the “polyreactivity (PSR sort gate)” value is recorded as “low polyreactivity”.
The result for “QVQLVESGGGLVQAGGSLRLSCAASGIIFKDYAMGWYRQAPGKERELVAAISRGGSTYYADSVKGRFTISRDNAKNTVYLQMNSLKPEDTAVYYCAAAYTAPYYRFGYWGQGTQVTVSS” reads “high polyreactivity”; that for “QVQLVESGGGLVQAGGSLRLSCAASGIIFKRYTMGWYRQAPGKERELVAAITNRGGTYYADSVKGRFTISRDNAKNTVYLQMNSLKPEDTAVYYCAARYYWIDFKFGGPRDYWGQGTQVTVSS”, “high polyreactivity”.
As to “QVQLVESGGGLVQAGGSLRLSCAASGIIFLDNARGWYRQAPGKERELVAAYADSVKGRFTISRDNAKNTVYLQMNSLKPEDTAVYYCNAGWFRNYGFSIVTYDYWGHGTQVTVSS”, the “polyreactivity (PSR sort gate)” value is reported as “low polyreactivity”.
The result for “QVQLVESGGGLVQAGGSLRLSCAASGIIFLHYAMGWYRQAPGKEREFVAAISWSGGSTHYADSVKGRFTISRDNAKNTVYLQMNSLKPEDTAVYYCAAYTFYSYDYWGQGTQVTVSS” reads “high polyreactivity”.
Under “QVQLVESGGGLVQAGGSLRLSCAASGIIFNTYAMGWYRQAPGKERELVAAISSSGGRTYYADSVKGRFTISRDHAKNTVYLQMNSLTPEDTAVYNCNKVQNRGPRTNARKFDYWGQGTQVTVSS” stands “high polyreactivity”; under “QVQLVESGGGLVQAGGSLRLSCAASGIIFPFYAMGWYRQAPGKERELVAAITSGDDTYYADSVKGRFTISRDNAKNTVYLQMNSLKPEDTAVYYCNKRLYIAGYWPQLYYIMDYWGQGTQVTVSS”, “low polyreactivity”; under “QVQLVESGGGLVQAGGSLRLSCAASGIIFPFYAMGWYRQAPGKERELVAAITSGDDTYYADSVKGRFTISRDNAKNTVYLQMNSLKPEVTAVYYCNKRLYIAGYWPQLYYIMDYWGQGTQVTVSS”, “low polyreactivity”.
The result for “QVQLVESGGGLVQAGGSLRLSCAASGIIFPINAMGWYRPAPGKERELVAGIDESGGGTYYADSVKGRFTISRDNAKNTLYLQMNSLKPEDTAVYYCAAVTLAPRAYDYWGQGTEVTVSS” reads “low polyreactivity”.
Consider “QVQLVESGGGLVQAGGSLRLSCAASGIIFPVYDMGWYRQAPGKERELVASITDSGGSTSYADSVKGRFTISRDNAKNTVYLQMNSLKPEDTAVYYCAVTDSDTNYYGYLSYDYWGQGTQVTVSS”, for which the “polyreactivity (PSR sort gate)” value is “low polyreactivity”.
In the case of “QVQLVESGGGLVQAGGSLRLSCAASGIIFPYSAMGWYRQAPGKERELVAAITSIDASTYYADSVKRRFTISRDNAKNTVYLHMNSLKPEDTAVYYCNATVFNLVLEYNYWGQGTQVTVSS”, the “polyreactivity (PSR sort gate)” value is reported as “low polyreactivity”.
Consider “QVQLVESGGGLVQAGGSLRLSCAASGIIFQKYAMGWYRQEPGKERELVDAITRRGGSTYYADSVKGRFTISRDNAKNTVYLQMNSLKPEDTAVYYCAVQLRRHVDMDYWGQGTQVTVSS”, for which the “polyreactivity (PSR sort gate)” value is “high polyreactivity”.
The result for “QVQLVESGGGLVQAGGSLRLSCAASGIIFQNYDMGWYRQAPGKARELVAAITGSGGSTYYADSVKGRFTISRDNAKNTVYLQMNSLKPEDTAVYYCNAVWEYYGKSDYWGQGTQVTVSS” reads “low polyreactivity”; that for “QVQLVESGGGLVQAGGSLRLSCAASGIIFQQYAMGWYRQAPGKERELVAAITYSGDGTYYADSVKGRFTISRDNAKNTVYLQMNSLKPEDTAVYYCAADVGYFKSDYWGQGTQVTVSS”, “low polyreactivity”.
Consider “QVQLVESGGGLVQAGGSLRLSCAASGIIFQRNDMGWYRQAPGKERELVANIRDGGITYADSVKGRFTISRDNAKNTVYLQMNRLKPEDTAVYYCARDDTSPGYGDQSSNAAYYYWGQGTQVTVSS”, for which the “polyreactivity (PSR sort gate)” value was “low polyreactivity”.
Under “QVQLVESGGGLVQAGGSLRLSCAASGIIFQSYTMGWYRQAPGKERELVAAIDSGGSTYYADSVKGRFTISRDNAKNTVYLQMNSLKPEDTAVYYCAAEPDTYWYTYDYWGQGTQVTVSS” stands “low polyreactivity”.
As for “QVQLVESGGGLVQAGGSLRLSCAASGIIFRANAMGWYRQAPGKERELVAAISRRGGSTYYADSVKGRFTISRDNAKNTVFLQMNSLKPEDTAVYYCAADGKNYPVGYDYWGQGTQVTVSS”, the “polyreactivity (PSR sort gate)” value is recorded as “high polyreactivity”.
Regarding “QVQLVESGGGLVQAGGSLRLSCAASGIIFRDNDMGWYRQAPGKERELVASISDSGGSTYYADSVKGRFTISRDNAKNTVYLQMNSLKPEDTAVYYCAAPYLSLYWYDYWGQGTQVTVSS”, the “polyreactivity (PSR sort gate)” value was “low polyreactivity”.
The result for “QVQLVESGGGLVQAGGSLRLSCAASGIIFREYAMGWYRQAPGKERELVAAISKSGGSTYYADSVKGRFTISRDNAKNTVYLQMNSLKPEDTAVYYCAARLGTFSIPMYYWGQGTQVTVSS” reads “high polyreactivity”.
Regarding “QVQLVESGGGLVQAGGSLRLSCAASGIIFRGYAMGRNRHAPGKERELVARISTSGGSTYYADSVKGRFTISRDNAKNTVYLQMNSLKPEDTAVYYCAATRSFLTSWYYRSTSTRDYWGQGTQVTVSS”, the “polyreactivity (PSR sort gate)” value is given as “high polyreactivity”.
Under “QVQLVESGGGLVQAGGSLRLSCAASGIIFRGYAMGWDRQAPGKERELVARISITGGRTYYADSVKGRFTLSRDNAKNTVYLQMNSLKPEDTAVYYCAAGKYVRTVRYDYWGQGPQVTVSS” stands “high polyreactivity”; under “QVQLVESGGGLVQAGGSLRLSCAASGIIFRGYAMGWYRQAPGKERELVAAITYSGDSTYYADSVKGRFTSSRDNAKNTVYLQMNSLKPEESAVYYCNADVVDGGLAYDYWGQGTQVSVSS”, “low polyreactivity”.
